This note sets out measurements from paper PMC8017705 (Proceedings of the National Academy of Sciences of the …, 2021).

The star is where a group is joined. Biotin = O=C1N[C@H]2[C@H](CS[C@H]2CCCCC(=O)*)N1

In this assay the target is T1, human RORγt ligand binding domain (residues 265 to 518) with an N-terminal His6-tag (human, UniProt P51449-1 265-518).
T1 sequence (looked up): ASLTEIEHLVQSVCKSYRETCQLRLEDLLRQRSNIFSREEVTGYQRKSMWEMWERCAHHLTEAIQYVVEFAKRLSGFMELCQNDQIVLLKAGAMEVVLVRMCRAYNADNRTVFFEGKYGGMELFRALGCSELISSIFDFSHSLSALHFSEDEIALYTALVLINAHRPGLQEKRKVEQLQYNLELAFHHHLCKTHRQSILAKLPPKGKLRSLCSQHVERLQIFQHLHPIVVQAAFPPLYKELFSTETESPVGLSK
The assay is described as follows: AlphaScreen or HTRF.

B1: N-terminal biotinylated SRC-1 box2 peptide (peptide)
peptide: Biotin-PSSHSSLTARHKILHRLLQEGSPSD-NH2
SMILES: CC[C@H](C)[C@H](NC(=O)[C@H](CCCCN)NC(=O)[C@H](Cc1c[nH]cn1)NC(=O)[C@H](CCCNC(=N)N)NC(=O)[C@H](C)NC(=O)[C@@H](NC(=O)[C@H](CC(C)C)NC(=O)[C@H](CO)NC(=O)[C@H](CO)NC(=O)[C@H](Cc1c[nH]cn1)NC(=O)[C@H](CO)NC(=O)[C@H](CO)NC(=O)[C@@H]1CCCN1C(=O)CCCC[C@@H]1SC[C@@H]2NC(=O)N[C@@H]21)[C@@H](C)O)C(=O)N[C@@H](CC(C)C)C(=O)N[C@@H](Cc1c[nH]cn1)C(=O)N[C@@H](CCCNC(=N)N)C(=O)N[C@@H](CC(C)C)C(=O)N[C@@H](CC(C)C)C(=O)N[C@@H](CCC(N)=O)C(=O)N[C@@H](CCC(=O)O)C(=O)NCC(=O)N[C@@H](CO)C(=O)N1CCC[C@H]1C(=O)N[C@@H](CO)C(=O)N[C@@H](CC(=O)O)C(N)=O
With B1, the binding result was “binds”.
